This test has as its target His-tagged full-length p53 (UniProt P04637 1-393). Description: co-IP.

Chain of His-tagged full-length p53 (P04637 whole entry): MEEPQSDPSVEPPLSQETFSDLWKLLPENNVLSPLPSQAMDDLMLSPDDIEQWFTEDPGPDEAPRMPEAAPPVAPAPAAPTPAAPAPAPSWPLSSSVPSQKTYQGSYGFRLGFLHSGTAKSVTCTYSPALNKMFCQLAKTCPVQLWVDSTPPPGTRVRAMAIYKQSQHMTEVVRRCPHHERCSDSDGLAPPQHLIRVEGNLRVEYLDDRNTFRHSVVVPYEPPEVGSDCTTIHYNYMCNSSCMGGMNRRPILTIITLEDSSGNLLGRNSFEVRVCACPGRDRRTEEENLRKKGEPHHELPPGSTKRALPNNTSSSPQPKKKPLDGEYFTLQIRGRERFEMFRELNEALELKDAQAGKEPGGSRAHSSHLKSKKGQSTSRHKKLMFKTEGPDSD

B1: His-tagged minimal-binding region of Dmp1 for p53 (M14: amino acids 87–224) (domain or fragment, UniProt Q8CE22 87-224, looked up)
chain: VTMTATTEVADDELSEGTVTQIQILQNDQLDEISPLGTEEVSAVSQAWFTTKEDKDSLTNKGHKWKQGMWSKEEIDILMNNIERYLKARGIKDATEIIFEMSKDERKDFYRTIAWGLNRPLFAVYRRVLRMYDDRNHV
In the case of B1, the binding result is “binds”.

The record behind these values is publication PMC3319807 (Cancer Research, 2012).
